# From US20250222128A1, “ANTIBODY DRUG-CONJUGATES TARGETING C-MET AND METHODS OF USE THEREOF” (Zymeworks BC Inc., priority 2022, published 2025)
# “Also recorded” adds a separate entry of the source.
# Key:
# Assay type in all cases: cell-based
# [1] = tested on: AKT phosphorylation in H441 lung cancer cells; experiment: cMet pathway agonism by Phospho-AKT ELISA; conditions: 100 nM, up to 60 minutes, FIG. 5B and FIG. 7
# Experimental: (§1) cMet pathway agonism of the anti-cMet antibody variant v17427 (HetFc, unmodified hinge) and ADCs comprising variant v17427 stochastically cysteine-conjugated to Drug-Linker 001 or MCvcPABC-MMAE at DAR 4 was assessed by cell proliferation and ELISA to measure for AKT phosphorylation as a downstream indicator of cMET activation.
# (§2) Phospho-AKT ELISA: Briefly, H441 or H596 lung cancer cells were detached with Cell Dissociation Buffer, seeded in 24-well tissue culture plates with RPMI-1640+10% FBS at a density of 50,000 cells/well, and incubated overnight (37° C., 5% CO2). Cells were then serum starved overnight (37° C., 5% CO2) by replacing the complete growth medium with serum-free RPMI-1640. […] Lysate protein concentration was assessed by a BCA protein assay (Thermo Fisher Scientific Inc., Cat. No. 23223 and 23224). Phospho-AKT levels in 10 μg of lysate was assessed using the PathScan® Phospho-Akt1 (Ser473) Sandwich ELISA Kit (Cell Signaling Technology, Cat. No. 7160C) as per manufacturer's instructions. Absorbance at 450 nm was measured using a Synergy™ H1 microplate (BioTek Instruments, Winooski, VT). Fold AKT phosphorylation was calculated by subtracting background A450 nm signal from all wells using signal blank wells, and then normalizing to the A450 nm signal of untreated cells at each corresponding timepoint. […]
# [2] = tested on: AKT phosphorylation in H596 lung cancer cells; experiment: cMet pathway agonism by Phospho-AKT ELISA; conditions: 100 nM, up to 60 minutes, FIG. 5A
# Experimental: as §1, §2
# H596 lung cancer cells = experiment: cMet pathway agonism by cell proliferation; conditions: serum starved cells; titration of test article; 6 days; FIG. 4 and FIG. 6
# Experimental: as §1
# Cell proliferation: Briefly, H596 lung cancer cells were serum starved overnight (37° C., 5% CO2) by replacing the complete growth medium with serum-free RPMI-1640 (Thermo Fisher Scientific Inc., Waltham, MA; Cat. No. A1049101). Cells were then detached with Cell Dissociation Buffer (Thermo Fisher Scientific Inc., Cat. No. 13151014), resuspended in RPMI-1640 supplemented with 1% FBS (v/v) (Thermo Fisher Scientific Inc., Cat. No. 12483-020) and seeded in 384-well tissue culture plates at a density of 1,000 cells/well. […] After incubation, CellTiter-Glo® reagent (Promega Corporation, Madison, WI; Cat. No. G7570) was spiked in all wells and luminescence corresponding to ATP present in each well was measured using a Synergy™ H1 microplate (BioTek Instruments, Winooski, VT). Based on untreated cells (no test article added), % viability values were calculated using ATP measurement RLU values (Relative Light Units) and plotted against test article concentration using GraphPad Prism 8 software (GraphPad Software, San Diego, CA). […]
molecule,measurement,setting,value
"v17429: control antibody, bivalent version of the anti-cMet antibody MetMab (onartuzumab), HetFc (antibody, chains of the INN, looked up, V domains shown, bivalent IgG, HetFc) VH: EVQLVESGGGLVQPGGSLRLSCAASGYTFTSYWLHWVRQAPGKGLEWVGMIDPSNSDTRFNPNFKDRFTISADTSKNTAYLQMNSLRAEDTAVYYCATYRSYVTPLDYWGQGTLVTVSS VL: DIQMTQSPSSLSASVGDRVTITCKSSQSLLYTSSQKNYLAWYQQKPGKAPKLLIYWASTRESGVPSRFSGSGSGTDFTLTISSLQPEDFATYYCQQYYAYPWTFGQGTKVEIK",AKT phosphorylation,[1],strong AKT phosphorylation; also recorded: strongly induced phosphorylation
same,AKT phosphorylation,[2],strong AKT phosphorylation
same,H596 proliferation compared to untreated controls,H596 lung cancer cells,dose-dependent increase in H596 proliferation; also recorded: strong dose-dependent increase in proliferation
